In data set [1] the target is FLAG-Ago1 (Drosophila melanogaster) (UniProt A1Z9J5). The experiment in a line: filter binding. Particulars: guide 5' phosphate; RBNS: 20 mM HEPES-KOH pH 7.9, 100 mM KOAc, 3.5 mM Mg(OAc) (magnesium acetate), 0.05% CHAPS, 2 mM DTT, 8% glycerol, BSA, tRNA, 25 C 2 h; filter binding: 25 mM ….
For the next data set, the target named is T1, PUM2 (human) (UniProt Q8TB72).
T1 sequence: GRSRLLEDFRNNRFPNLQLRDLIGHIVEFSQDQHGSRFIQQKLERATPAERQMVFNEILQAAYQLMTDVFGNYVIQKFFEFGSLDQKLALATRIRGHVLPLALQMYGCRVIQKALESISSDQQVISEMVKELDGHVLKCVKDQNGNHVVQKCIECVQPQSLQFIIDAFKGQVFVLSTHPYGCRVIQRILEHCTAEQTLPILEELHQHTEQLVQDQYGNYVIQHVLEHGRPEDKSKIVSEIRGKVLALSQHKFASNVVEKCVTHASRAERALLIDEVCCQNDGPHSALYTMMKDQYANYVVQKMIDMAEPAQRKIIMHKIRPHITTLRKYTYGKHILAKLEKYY
Put plainly: RBNS. The conditions noted are these: RBNS: 20 mM HEPES-KOH pH 7.9, 100 mM KOAc, 3.5 mM Mg(OAc) (magnesium acetate), 0.05% CHAPS, 2 mM DTT, 8% glycerol, BSA, tRNA, 25 C 2 h; filter binding: 25 mM ….

As a reminder, the pKd is −log10 of the Kd, conventionally taken in molar units. Low readings indicate a large Kd, high ones a small Kd.

pKd: −log10 of the molar value.

FLAG-Ago1 (Drosophila melanogaster), sequence (A1Z9J5 entry or part of it): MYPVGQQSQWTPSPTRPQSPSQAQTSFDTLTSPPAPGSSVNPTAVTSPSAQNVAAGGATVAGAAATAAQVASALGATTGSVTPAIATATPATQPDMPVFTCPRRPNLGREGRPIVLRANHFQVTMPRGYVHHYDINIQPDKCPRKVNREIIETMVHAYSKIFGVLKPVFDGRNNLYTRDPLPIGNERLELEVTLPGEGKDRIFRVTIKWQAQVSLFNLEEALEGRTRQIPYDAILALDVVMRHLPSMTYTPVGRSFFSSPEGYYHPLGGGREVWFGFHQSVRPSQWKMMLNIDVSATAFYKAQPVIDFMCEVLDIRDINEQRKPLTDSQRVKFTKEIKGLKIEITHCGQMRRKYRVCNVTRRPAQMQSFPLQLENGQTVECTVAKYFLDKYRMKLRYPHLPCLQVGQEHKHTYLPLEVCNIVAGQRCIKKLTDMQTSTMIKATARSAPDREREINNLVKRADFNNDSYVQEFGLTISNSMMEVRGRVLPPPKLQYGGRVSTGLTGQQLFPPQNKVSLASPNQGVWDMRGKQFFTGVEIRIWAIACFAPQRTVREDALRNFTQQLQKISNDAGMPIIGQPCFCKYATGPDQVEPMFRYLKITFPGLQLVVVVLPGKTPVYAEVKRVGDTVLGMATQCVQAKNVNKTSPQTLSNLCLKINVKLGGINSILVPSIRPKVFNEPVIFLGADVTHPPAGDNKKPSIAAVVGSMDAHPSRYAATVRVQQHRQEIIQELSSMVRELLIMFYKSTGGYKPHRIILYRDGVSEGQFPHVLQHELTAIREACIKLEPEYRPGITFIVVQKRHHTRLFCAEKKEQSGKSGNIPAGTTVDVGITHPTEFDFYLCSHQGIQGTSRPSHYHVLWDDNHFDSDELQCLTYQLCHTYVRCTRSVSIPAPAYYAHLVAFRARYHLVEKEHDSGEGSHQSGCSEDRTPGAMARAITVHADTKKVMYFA

“UGAGGUAGUAGGUUGUAUAGU / AAAAAAAAAAAAUCUACCUCU [let-7 / seed-matching target]”: the pKd in data set [1] was 11.30. “UGAGGUAGUAGGUUGUAUAGU / ACUAUACAACCUACUACCUCA [let-7 / fully complementary target]” showed a pKd in data set [1] of 11.70. This pKd lies 0.40 log units higher than the previous one. The sequence UGUAUAUA [PUM consensus site] had a pKd with PUM2 (human) of 9.49.

The values are drawn from publication doi:10.1101/2024.11.16.623948.
